Measurements: article PMC3576412

B1: Im2 (D33A), pulled from residue 81 (natural protein)
chain: MELKHSISDYTEAEFLEFVKKIARAEGATEEDANKLVREFERLTEHPDGSDLIYYPRDDREDSPEGIVKEIKEWRAANGKCGFKQG

What was measured:
Im9 (Escherichia coli) = Im9 (Escherichia coli) (UniProt P13479); settings: cited from earlier work
[1] = biological target: DNase domain of colicin E9, E9 (S3C) (E. coli); test: dynamic force spectroscopy (AFM)

Molecule | Kd (Im9 (Escherichia coli)) [pM] | k0F off (outer barrier) [1] [s⁻¹]
Colicin E9 DNase domain (from UniProt P09883) | 0.016 | 
B1 |  | 7.6
